± gives the standard deviation of the averaged measurements.
Test: total protein half-life in vivo (active degradation + dilution); higher = more stable protein
[1] = wild type E. coli NCM3722, growth: C-lim chemostat, doubling time 3 h
[2] = E. coli NCM3722 delta-clpP delta-lon delta-hslV, growth: N-lim chemostat, doubling time 6 h
[3] = E. coli NCM3722 delta-clpP, growth: N-lim chemostat, doubling time 6 h
[4] = E. coli NCM3722 delta-hslV, growth: N-lim chemostat, doubling time 6 h
[5] = E. coli NCM3722 delta-lon, growth: N-lim chemostat, doubling time 6 h
[6] = E. coli NCM3722 delta-smpB, growth: N-lim chemostat, doubling time 6 h
[7] = wild type E. coli NCM3722, growth: C-lim chemostat, doubling time 6 h
[8] = wild type E. coli NCM3722, growth: C-lim chemostat, doubling time 12 h
[9] = wild type E. coli NCM3722, growth: N-lim chemostat, doubling time 6 h
[10] = wild type E. coli NCM3722, growth: N-lim chemostat, doubling time 12 h
[11] = wild type E. coli NCM3722, growth: P-lim chemostat, doubling time 6 h
[12] = wild type E. coli NCM3722, growth: P-lim chemostat, doubling time 12 h

| Sequence | total protein half-life in vivo [1] | total protein half-life in vivo [2] | total protein half-life in vivo [3] | total protein half-life in vivo [4] | total protein half-life in vivo [5] | total protein half-life in vivo [6] | total protein half-life in vivo [7] | total protein half-life in vivo [8] | total protein half-life in vivo [9] | total protein half-life in vivo [10] | total protein half-life in vivo [11] | total protein half-life in vivo [12] |
| --- | --- | --- | --- | --- | --- | --- | --- | --- | --- | --- | --- | --- |
| MILHAQAKHGKPGLPWLVFLHGFSGDCHEWQEVGEAFADYSRLYVDLPGHGGSAAISVDGFDDVTDLLRKTLVSYNILDFWLVGYSLGGRVAMMAACQGLAGLCGVIVEGGHPGLQNAEQRAERQRSDRQWVQRFLTEPLTAVFADWYQQPVFASLNDDQRRELVALRSNNNGATLAAMLEATSLAVQPDLRANLSARTFAFYYLCGERDSKFRALAAELAADCHVIPRAGHNAHRENPAGVIASLAQILRF | 3.44 h | – | – | – | – | – | – | – | – | – | – | – |
| MASTFTSDTLPADHKAAIRQMKHALRAQLGDVQQIFNQLSDDIATRVAEINALKAQGDAVWPVLSYADIKAGHVTAEQREQIKRRGCAVIKGHFPREQALGWDQSMLDYLDRNRFDEVYKGPGDNFFGTLSASRPEIYPIYWSQAQMQARQSEEMANAQSFLNRLWTFESDGKQWFNPDVSVIYPDRIRRRPPGTTSKGLGAHTDSGALERWLLPAYQRVFANVFNGNLAQYDPWHAAHRTEVEEYTVDNTTKCSVFRTFQGWTALSDMLPGQGLLHVVPIPEAMAYVLLRPLLDDVPEDELCGVAPGRVLPVSEQWHPLLIEALTSIPKLEAGDSVWWHCDVIHSVAPVENQQGWGNVMYIPAAPMCEKNLAYAHKVKAALEKGASPGDFPREDYETNWEGRFTLADLNIHGKRALGMDV | 2.7 ± 0.11 h | 3.33 ± 0.48 h | 2.54 ± 0.23 h | 2.4687 ± 0.002 h | 2.95 ± 0.21 h | 2.62 ± 0.082 h | 4.34 ± 1 h | 3.99 ± 0.74 h | 2.526 ± 0.014 h | 3.68 ± 0.21 h | 4.563 ± 0.02 h | 7.6 ± 0.48 h |
| MKLRDSLAENKSIRLQAEAETWQEAVKIGVDLLVAADVVEPRYYQAILDGVEQFGPYFVIAPGLAMPHGRPEEGVKKTGFSLVTLKKPLEFNHDDNDPVDILITMAAVDANTHQEVGIMQIVNLFEDEENFDRLRACRTEQEVLDLIDRTNAAA | 3.32 ± 0.71 h | – | – | – | – | 3.07 h | 3.97 ± 0.22 h | 7.31 h | 3.02 h | – | 4.94 ± 0.59 h | 7.637 ± 0.049 h |
| MSRFVPRIIPFYLLLLVAGGTANAQSTFEQKAANPFDNNNDGLPDLGMAPENHDGEKHFAEIVKDFGETSMNDNGLDTGEQAKAFALGKVRDALSQQVNQHVESWLSPWGNASVDVKVDNEGHFTGSRGSWFVPLQDNDRYLTWSQLGLTQQDNGLVSNVGVGQRWARGNWLVGYNTFYDNLLDENLQRAGFGAEAWGEYLRLSANFYQPFAAWHEQTATQEQRMARGYDLTARMRMPFYQHLNTSVSLEQYFGDRVDLFNSGTGYHNPVALSLGLNYTPVPLVTVTAQHKQGESGENQNNLGLNLNYRFGVPLKKQLSAGEVAESQSLRGSRYDNPQRNNLPTLEYRQRKTLTVFLATPPWDLKPGETVPLKLQIRSRYGIRQLIWQGDTQILSLTPGAQANSAEGWTLIMPDWQNGEGASNHWRLSVVVEDNQGQRVSSNEITLTLVEPFDALSNDELRWEP | – | – | 6.12 h | 5.24 ± 1.5 h | 5.79 ± 1.8 h | 5.36 ± 0.54 h | – | – | 6.73 ± 1 h | 14.3 ± 1.6 h | – | – |
| MPTKPPYPREAYIVTIEKGKPGQTVTWYQLRADHPKPDSLISEHPTAQEAMDAKKRYEDPDKE [P0AAN5] | 3.69 h | – | 5.03 ± 0.57 h | 5.08 ± 0.48 h | 5.38 ± 1.4 h | 4.72 ± 0.16 h | 3.08 h | 7.61 h | 4.1 ± 0.042 h | 8.6 ± 1.8 h | 5.3 h | 9.63 ± 1.6 h |
| MQQLASFLSGTWQSGRGRSRLIHHAISGEALWEVTSEGLDMAAARQFAIEKGAPALRAMTFIERAAMLKAVAKHLLSEKERFYALSAQTGATRADSWVDIEGGIGTLFTYASLGSRELPDDTLWPEDELIPLSKEGGFAARHLLTSKSGVAVHINAFNFPCWGMLEKLAPTWLGGMPAIIKPATATAQLTQAMVKSIVDSGLVPEGAISLICGSAGDLLDHLDSQDVVTFTGSAATGQMLRVQPNIVAKSIPFTMEADSLNCCVLGEDVTPDQPEFALFIREVVREMTTKAGQKCTAIRRIIVPQALVNAVSDALVARLQKVVVGDPAQEGVKMGALVNAEQRADVQEKVNILLAAGCEIRLGGQADLSAAGAFFPPTLLYCPQPDETPAVHATEAFGPVATLMPAQNQRHALQLACAGGGSLAGTLVTADPQIARQFIADAARTHGRIQILNEESAKESTGHGSPLPQLVHGGPGRAGGGEELGGLRAVKHYMQRTAVQGSPTMLAAISKQWVRGAKVEEDRIHPFRKYFEELQPGDSLLTPRRTMTEADIVNFACLSGDHFYAHMDKIAAAESIFGERVVHGYFVLSAAAGLFVDAGVGPVIANYGLESLRFIEPVKPGDTIQVRLTCKRKTLKKQRSAEEKPTGVVEWAVEVFNQHQTPVALYSILTLVARQHGDFVD | – | 4.86 h | – | – | – | – | – | – | – | 6.08 h | – | 7.41 h |
| MKTSVRIGAFEIDDGELHGESPGDRTLTIPCKSDPDLCMQLDAWDAETSIPALLNGEHSVLYRTRYDQQSDAWIMRLA | 1.04 ± 0.18 h | 2.16 ± 0.13 h | 1.58 h | 0.651 h | 1.83 ± 1.1 h | 0.479 ± 0.045 h | 1.846 ± 0.018 h | 2.06 h | 0.85 h | 0.89 h | 0.882 ± 0.16 h | 1.16 h |
| MKILVTGGAGFIGSAVVRHIINNTQDSVVNVDKLTYAGNRESLADVSDSERYVFEHADICDAPAMARIFAQHQPDAVMHLAAESHVDRSITGPAAFIETNIVGTYVLLEAARNYWSALDSDKKNSFRFHHISTDEVYGDLPHPDEVNNTEELPLFTETTAYAPSSPYSASKASSDHLVRAWKRTYGLPTIVTNCSNNYGPYHFPEKLIPLVILNALEGKALPIYGKGDQIRDWLYVEDHARALYTVVTEGKAGETYNIGGHNEKKNIDVVLTICDLLDEIVPKEKSYREQITYVADRPGHDRRYAIDAEKIGRALGWKPQETFESGIRKTVEWYLSNTKWVDNVKSGAYQSWIEQNYEGRQ | – | 5.58 h | – | 5.31 h | – | – | – | – | 5.85 h | – | 7.66 h | – |

Reference: the supplement of paper PMC11246515
